{
  "source": "patent US20250341522A1",
  "about": "“Treatment Strategies for Pancreatic Cancer Using Recombinant Acid Sphingomyelinase” (University of Cincinnati, priority 2024, published 2025)",
  "key": {"KPC cells": {"test_system": "KPC cells", "experiment": "Tumor growth in wt mice after peritoneal injection of KPC cells, gemcitabine plus recombinant ASM (Example 10, FIG. 11)", "type": "in vivo", "details": "0.75 mg/kg i.v. twice daily, 2 treatment cycles of 4 days each, in combination with gemcitabine; KPC tumor-injected wt mice", "protocol": "FIG. 11 is a graph showing the results of wt mice that were treated with gemcitabine alone, gemcitabine plus recombinant ASM, or vehicle control after peritoneal injection of KPC cells. Recombinant ASM was administered twice daily at 0.75 mg/kg i.v. for two treatment cycles of 4 days each.\nSince PDAC growth in ASM-tr mice. we determined the therapeutic potential of exogenous administration of recombinant ASM. We administered 0.75 mg/kg recombinant ASM i.v. twice daily to tumor-injected mice for 2 treatment cycles of 4 days each in combination with the standard treatment, i.e. gemcitabine. […] However, because the half-life of recombinant ASM is only 2 h, these studies must be repeated with continuous infusion of ASM.\nWt mice were treated with gemcitabine alone (“Group 1”), gemcitabine plus recombinant ASM (“Group 2”) or vehicle control after peritoneal injection of KPC cells (“Group 3”). Recombinant ASM was administered twice daily 0.75 mg/kg i.v. for two treatment cycles of 4 days each."}, "KPC tumor cells": {"test_system": "KPC tumor cells", "experiment": "Survival after i.p. injection of KPC tumor cells (Example 11)", "type": "in vivo, mice", "details": "50 000 KPC tumor cells i.p., rec. ASM i.p. twice daily for 2 weeks, starting 2 days after tumor injection; for Survival of individual subjects: anti-PD1 every 2nd day i.p. 250 μg/25 g where combined", "protocol": "Group 1: 50 000 KPC tumor cells were i.p. injected and tumor development was determined. For this group, the subjects survived, respectively, for 27, 28, 28, 29, 30, and 31 days.\nGroup 2: Survival time was collected for subjects upon application of recombinant acid sphingomyelinase (i.p., twice daily, for 2 weeks, starting 2 days after tumor injection). For this group, the subjects survived, respectively, for 48, 55, 57, 60, 62, 65 and 70 days. The acid sphingomyelinase was injected for a longer time and i.p. in these experiments than in FIG. 11.\nGroup 3: Survival time was collected for subjects upon application of recombinant acid sphingomyelinase (i.p., twice daily, for 2 weeks, starting 2 days after tumor injection)+application of anti-PD1 antibodies (every 2nd day i.p., 250 μg/25 g). For this group, the subjects survived, respectively, for 75, 80, 85, 87, 90, 93 and 96 days. The half-life time of acid sphingomyelinase is rather short in mice (2 hrs, but much longer in humans with 2 weeks). Thus, the i.p. injection are not very sufficient and must be replaced by continuous infusion, which may allow complete elimination of the tumors."}, "PD1 on CD3 lymphocytes": {"test_system": "PD1 on CD3 lymphocytes", "experiment": "PD1 surface expression on CD3 lymphocytes by flow cytometry in KPC tumor mice (Example 12)", "type": "in vivo", "details": "wildtype mice, KPC-PDAC (50 000 cells i.p.), 21 days; rec. ASM for 2 days with 4 i.p. injections/day; individual mice", "protocol": "FIG. 12 is a graph showing the PDI expression on lymphocytes of tumor mice upon treatment with recombinant acid sphingomyelinase or solvent.\nThe PD1 expression on lymphocytes with/without treatment with recombinant acid sphingomyelinase was determined. The surface expression of PD1 on CD3 lymphocytes was determined by flow cytometry upon staining with FITC-anti-PD1 and APC-anti-CD3 antibodies, expressed as mean fluorescence in a.u. of PD1 in the CD3-positive cell population. Mice were i.p. injected with 50 000 KPC tumor cells, left for 21 days untreated or treated with recombinant acid sphingomyelinase for 2 days with 4 i.p. injections/day."}, "[1]": {"details": "in humans; cited from earlier work"}, "[2]": {"details": "cited from earlier work"}},
  "note": "Several values for one entry are separate records, joined by “and”; a condition that tells them apart may be missing. Equal values may be shown once. Read-outs that look alike come from different tables or passages of the source.",
  "data": [
    {"molecule": "recombinant ASM: recombinant acid sphingomyelinase (EC 3.1.4.12, SMPD1), a lysosomal hydrolase glycoprotein degrading sphingomyelin to phosphorylcholine and ceramide (protein, UniProt P17405 47-631, looked up) Sphingomyelin …: LALSDSRVLWAPAEAHPLSPQGHPARLHRIVPRLRDVFGWGNLTCPICKGLFTAINLGLKKEPNVARVGSVAIKLCNLLKIAPPAVCQSIVHLFEDDMVEVWRRSVLSPSEACGLLLGSTCGHWDIFSSWNISLPTVPKPPPKPPSPPAPGAPVSRILFLTDLHWDHDYLEGTDPDCADPLCCRRGSGLPPASRPGAGYWGEYSKCDLPLRTLESLLSGLGPAGPFDMVYWTGDIPAHDVWHQTRQDQLRALTTVTALVRKFLGPVPVYPAVGNHESTPVNSFPPPFIEGNHSSRWLYEAMAKAWEPWLPAEALRTLRIGGFYALSPYPGLRLISLNMNFCSRENFWLLINSTDPAGQLQWLVGELQAAEDRGDKVHIIGHIPPGHCLKSWSWNYYRIVARYENTLAAQFFGHTHVDEFEVFYDEETLSRPLAVAFLAPSATTYIGLNPGYRVYQIDGNYSGSSHVVLDHETYILNLTQANIPGAIPHWQLLYRARETYGLPNTLPTAWHNLVYRMRGDMQLFQTFWFLYHKGHPPSEPCGTPCRLATLCAQLSARADSPALCRHLMPDGSLPEAQSLWPRPLFC", "values": [
      {"measurement": "tumor growth", "setting": "KPC cells", "value": "delayed tumor growth"},
      {"measurement": "Survival of individual subjects", "setting": "KPC tumor cells", "value": "48 days and 55 days and 57 days and 60 days and 62 days and 65 days and 70 days"},
      {"measurement": "Survival of individual subjects", "setting": "KPC tumor cells; listed as Rec. ASM alone", "value": "48 days and 55 days and 57 days and 60 days and 62 days and 65 days and 70 days"},
      {"measurement": "Avg. Survival", "setting": "KPC tumor cells; anti-PD1 every 2nd day i.p. where combined", "value": 59.6, "unit": "days"},
      {"measurement": "Surface expression of PD1 on CD3 lymphocytes, mean fluorescence of PD1 in the CD3-positive cell population", "setting": "PD1 on CD3 lymphocytes", "value": "138 a.u. and 129 a.u. and 125 a.u. and 118 a.u. and 131 a.u. and 115 a.u. and 141 a.u."},
      {"measurement": "half-life time of acid sphingomyelinase", "setting": "[1]", "value": 2, "unit": "weeks"},
      {"measurement": "half-life time of acid sphingomyelinase", "setting": "[2]; in mice", "value": 2, "unit": "h"},
      {"measurement": "half-life of recombinant ASM", "setting": "[2]; stated in mouse study of Example 10", "value": 2, "unit": "h"}
    ]}
  ]
}
